From patent US20210130470A1 (MacroGenics, published 2021)
Residue numbers refer to the chain shown, from its start.

T1: human CTLA-4 expressed on the cell surface (human, UniProt P16410 36-223)
T1 construct: also called huCTLA-4; CHO cells expressing human CTLA-4
T1 sequence: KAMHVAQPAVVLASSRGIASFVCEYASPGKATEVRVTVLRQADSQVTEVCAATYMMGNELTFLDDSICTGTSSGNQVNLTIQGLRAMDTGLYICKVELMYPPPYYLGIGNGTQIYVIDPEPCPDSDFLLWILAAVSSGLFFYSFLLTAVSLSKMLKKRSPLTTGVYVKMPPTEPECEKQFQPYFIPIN

T2: cynomolgus monkey CTLA-4 expressed on CHO cells (cynomolgus monkey, UniProt G7PL88 36-223)
T2 construct: also called cynoCTLA-4
T2 sequence: T1 sequence with S14N, I18T, L106M

T3: His-tagged soluble human CTLA-4 (human, UniProt P16410 36-161)
T3 construct: also called shCTLA-4
T3 sequence: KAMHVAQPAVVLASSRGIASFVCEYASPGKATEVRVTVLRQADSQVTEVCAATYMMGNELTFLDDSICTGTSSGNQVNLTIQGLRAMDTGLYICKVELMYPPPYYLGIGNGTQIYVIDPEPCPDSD

T4: soluble hCTLA-4-Avi-His (human, UniProt P16410 36-161)
T4 construct: also called soluble human CTLA-4-Avi-His
T4 sequence: T3 sequence

B1: DART D (bispecific antibody, human IgG4 S228P)
chain 1: EIVLTQSPATLSLSPGERATLSCRASESVDNYGMSFMNWFQQKPGQPPKLLIHAASNQGSGVPSRFSGSGSGTDFTLTISSLEPEDFAVYFCQQSKEVPYTFGGGTKVEIKGGGSGGGGQVQLVESGGGVVQPGRSLRLSCAASGFTFSSYTMHWVRQAPGKGLEWVTFISYDGSNKHYADSVKGRFTVSRDNSKNTLYLQMNSLRAEDTAIYYCARTGWLGPFDYWGQGTLVTVSSGGCGGGEVAACEKEVAALEKEVAALEKEVAALEKESKYGPPCPPCPAPEFLGGPSVFLFPPKPKDTLYITREPEVTCVVVDVSQEDPEVQFNWYVDGVEVHNAKTKPREEQFNSTYRVVSVLTVLHQDWLNGKEYKCKVSNKGLPSSIEKTISKAKGQPREPQVYTLPPSQEEMTKNQVSLTCLVKGFYPSDIAVEWESNGQPENNYKTTPPVLDSDGSFFLYSRLTVDKSRWQEGNVFSCSVMHEALHNHYTQKSLSLSLG
chain 2: not shown
notes: Four-chain Fc diabody, PD-1 mAb 6-ISQ x CTLA-4 mAb 3, IgG4 (YTE), E/K-coils
B2: CTLA-4 mAb 1 (antibody, IgG1, V domains shown)
VH: QVQLVESGGGVVQPGRSLRLSCAASGFTFSSYTMHWVRQAPGKGLEWVTFISYDGNNKYYADSVKGRFTISRDNSKNTLYLQMNSLRAEDTAIYYCARTGWLGPFDYWGQGTLVTVSS
VL: not shown
notes: IgG1, natural antibody structure; also called ipilimumab replica
B3: TRIDENT A (bispecific antibody, human IgG4 S228P, kappa)
chain 1: EIVLTQSPATLSLSPGERATLSCRASESVDNYGMSFMNWFQQKPGQPPKLLIHAASNQGSGVPSRFSGSGSGTDFTLTISSLEPEDFAVYFCQQSKEVPYTFGGGTKVEIKGGGSGGGGQVQLVQSGAEVKKPGASVKVSCKASGYSFTSYWMNWVRQAPGQGLEWIGVIHPSDSETWLDQKFKDRVTITVDKSTSTAYMELSSLRSEDTAVYYCAREHYGTSPFAYWGQGTLVTVSSGGCGGGEVAACEKEVAALEKEVAALEKEVAALEKESKYGPPCPPCPAPEFLGGPSVFLFPPKPKDTLYITREPEVTCVVVDVSQEDPEVQFNWYVDGVEVHNAKTKPREEQFNSTYRVVSVLTVLHQDWLNGKEYKCKVSNKGLPSSIEKTISKAKGQPREPQVYTLPPSQEEMTKNQVSLWCLVKGFYPSDIAVEWESNGQPENNYKTTPPVLDSDGSFFLYSRLTVDKSRWQEGNVFSCSVMHEALHNHYTQKSLSLSLG
chain 2: EIVLTQSPATLSLSPGERATLSCRASESVDNYGMSFMNWFQQKPGQPPKLLIHAASNQGSGVPSRFSGSGSGTDFTLTISSLEPEDFAVYFCQQSKEVPYTFGGGTKVEIKGGGSGGGGQVQLVQSGAEVKKPGASVKVSCKASGYSFTSYWMNWVRQAPGQGLEWIGVIHPSDSETWLDQKFKDRVTITVDKSTSTAYMELSSLRSEDTAVYYCAREHYGTSPFAYWGQGTLVTVSSGGCGGGKVAACKEKVAALKEKVAALKEKVAALKE
chain 3: QVQLVESGGGVVQPGRSLRLSCAASGFTFSSYTMHWVRQAPGKGLEWVTFISYDGSNKHYADSVKGRFTVSRDNSKNTLYLQMNSLRAEDTAIYYCARTGWLGPFDYWGQGTLVTVSSASTKGPSVFPLAPCSRSTSESTAALGCLVKDYFPEPVTVSWNSGALTSGVHTFPAVLQSSGLYSLSSVVTVPSSSLGTKTYTCNVDHKPSNTKVDKRVESKYGPPCPPCPAPEFLGGPSVFLFPPKPKDTLYITREPEVTCVVVDVSQEDPEVQFNWYVDGVEVHNAKTKPREEQFNSTYRVVSVLTVLHQDWLNGKEYKCKVSNKGLPSSIEKTISKAKGQPREPQVYTLPPSQEEMTKNQVSLSCAVKGFYPSDIAVEWESNGQPENNYKTTPPVLDSDGSFFLVSRLTVDKSRWQEGNVFSCSVMHEALHNRYTQKSLSLSLG
chain 4: not shown
notes: Four-chain trivalent molecule: two PD-1 sites (PD-1 mAb 6-ISQ, diabody type), one CTLA-4 site (CTLA-4 mAb 3, Fab type), knob/hole IgG4 (YTE)
B4: DART B (bispecific antibody)
chain 1: not shown
chain 2: EIVLTQSPATLSLSPGERATLSCRASESVDNYGMSFMNWFQQKPGQPPKLLIHAASNQGSGVPSRFSGSGSGTDFTLTISSLEPEDFAVYFCQQSKEVPYTFGGGTKVEIKGGGSGGGGQVQLVESGGGVVQPGRSLRLSCAASGFTFSSYTMHWVRQAPGKGLEWVTFISYDGNNKYYADSVKGRFTISRDNSKNTLYLQMNSLRAEDTAIYYCARTGWLGPFDYWGQGTLVTVSSGGCGGGKVAACKEKVAALKEKVAALKEKVAALKE
notes: Four-chain Fc diabody, PD-1 mAb 6-ISQ x CTLA-4 mAb 1, IgG4 (YTE), E/K-coils; two sites for PD-1 and two for CTLA-4
B5: DART C (bispecific antibody)
chain 1: not shown
chain 2: B4 chain 2 with N175S, Y178H, I189V
notes: Four-chain Fc diabody, CTLA-4 mAb 3 x PD-1 mAb 6-ISQ, IgG4 Fc, E/K-coils

Legend:
[1] = target: T5, hPD-1-His (human, UniProt Q15116 25-170, limits assumed); assay: ELISA: shPD-1-his coated, detection goat anti-human Fc-gamma-HRP 1:10000, chemiluminescence RLU
T5 construct: also called His-tagged soluble human PD-1; shPD-1
Source text: (§1) FIGS. 8A-8D show the results of ELISA studies measuring the binding of serially diluted binding molecules to human CTLA-4 and human PD-1. […] Goat anti-human-Fc-HRP (1:10,000) was employed as the secondary detection molecule to detect binding. FIGS. 8C-8D show the results of a study on the effect of altering orientations and binding domains on binding. […] Goat anti-human-Fcγ-HRP was employed as the secondary detection molecule to detect binding using PICO chemiluminescent substrate.

[2] = target: T6, PD-1 expressed on the cell surface (human, UniProt Q15116 21-288); assay: flow cytometry on NSO cells expressing PD-1 but not CTLA-4, MFI (APC)
T6 construct: also called NSO cells expressing PD-1; NSO-PD-1 cells

[3] = target: T1, human CTLA-4 expressed on the cell …; assay: cell-based competition: blocked ligand His-B7-2 116.8 ng/ml binding to CTLA-4 Jurkat cells, detected with anti-His antibody, GMFI-APC
[4] = target: T2, cynomolgus monkey CTLA-4 expressed on …; assay: flow cytometry on CHO cells expressing cynomolgus monkey CTLA-4, anti-human Fc secondary antibody, GMFI
[5] = target: T5, hPD-1-His; assay: competition ELISA: plate coated with shPD-1 and irrelevant antigen 1:1 (2 ug/ml each); blocked ligand biotin-labeled PD-L1 6 ug/ml, streptavidin-HRP, RLU
Experimental: (§2) A series of ELISA assays were conducted to evaluate the ability of bispecific molecules of the invention to block ligand binding to PD-1 and […], alone and in combination. […] Plates were coated with a 1:1 mix of His-tagged soluble human PD-1 (shPD-1) and a His-tagged irrelevant antigen (irrAg) (2 μg/ml each), or a 1:1 mix of shPD-1 and a His-tagged soluble human CTLA-4 (shCTLA-4) (2 μg/ml each).

[6] = target: T6, PD-1 expressed on the cell surface; assay: cell-based competition (FACS): blocked ligand PD-L1-PE binding to NSO-PD-1 cells, MFI
[7] = target: T6, PD-1 expressed on the cell surface; assay: cell-based competition (FACS): blocked ligand PD-L2-PE binding to NSO-PD-1 cells, MFI
[8] = target: T1, human CTLA-4 expressed on the cell …; assay: flow cytometry on CHO cells expressing human CTLA-4, anti-human Fc secondary antibody, GMFI
[9] = target: T7, His-tagged soluble cynomolgus monkey CTLA-4 (cynomolgus monkey); assay: BIACORE, His-tagged soluble cyno CTLA-4 captured on anti-PentaHis, binder passed over at 12.5-200 nM; avidity by separate ka/kd 1:1 fit
T7 construct: extracellular domain; also called Cyno CTLA-4
Experimental: (§3) Briefly, His-tagged soluble CTLA-4 (an extracellular portion of human or cynomolgus monkey CTLA-4 fused to a histidine-containing peptide) was captured on immobilized anti-PentaHis and then different concentrations (12.5-200 nM) of the CTLA-4 binding molecules were passed over the immobilized CTLA-4 proteins. The kinetics of binding were determined via BIACORE® analysis (affinity by 1:1 Langmuir binding model (simultaneous ka/kd); or avidity by separate ka/kd 1:1 fit).

[10] = target: T1, human CTLA-4 expressed on the cell …; assay: cell-based competition: blocked ligand His-B7-1 10 ng/ml binding to CTLA-4 Jurkat cells, detected with anti-His antibody, GMFI-APC
[11] = target: T5, hPD-1-His; assay: competition ELISA: plate coated with shPD-1 and shCTLA-4 1:1 (2 ug/ml each); blocked ligand biotin-labeled PD-L1 6 ug/ml, streptavidin-HRP, RLU
Experimental: as §2

[12] = target: T7, His-tagged soluble cynomolgus monkey …; assay: BIACORE, His-tagged soluble cyno CTLA-4 captured on anti-PentaHis, binder passed over at 12.5-200 nM; affinity by 1:1 Langmuir binding model
Experimental: as §3

[13] = target: T3, His-tagged soluble human CTLA-4; assay: competition ELISA: plate coated with shCTLA-4 and shPD-1 1:1 (2 ug/ml each); blocked ligand biotin-labeled B7-1 0.2 ug/ml, streptavidin-HRP, RLU
Experimental: (§4) Plates were coated with a 1:1 mix of shCTLA-4 and irrAg (2 μg/ml each), a 1:1 mix of shCTLA-4 shPD-1 (2 μg/ml each), or a 1:4 mix of shCTLA-4 (0.8 μg/ml) and shPD-1 (3.2 μg/ml).

[14] = target: T3, His-tagged soluble human CTLA-4; assay: competition ELISA: plate coated with shCTLA-4 0.8 ug/ml and shPD-1 3.2 ug/ml (1:4); blocked ligand biotin-labeled B7-1 0.2 ug/ml, streptavidin-HRP, RLU
Experimental: as §4

[15] = target: T4, soluble hCTLA-4-Avi-His; assay: ELISA: shCTLA-4-Avi-His coated at 1 ug/mL, detection goat anti-human Fc-gamma-HRP 1:10000, chemiluminescence RLU
Source text: as §1

| EC50 (read off the curve) [1] [nM] | IC50 (read off the curve) [5] [nM] | IC50 (read off the curve) [6] [nM] | IC50 (read off the curve) [7] [nM] | Kd [9] [nM] | other results | Binder |
| --- | --- | --- | --- | --- | --- | --- |
| ~0.5 | ~0.8 | ~0.8 | ~1 | 4.9 | EC50 (read off the curve) [2]: ~1 nM; IC50 (read off the curve) [3]: ~5 nM; EC50 (read off the curve) [4]: ~2 nM; EC50 (read off the curve) [8]: ~2 nM; IC50 (read off the curve) [10]: ~4 nM | B1 |
| – | – | – | – | 1.3 | – | B2 |
| – | ~1 | ~0.8 | ~1 | – | IC50 (read off the curve) [11]: ~1 nM; Kd [12]: 260 nM; IC50 (read off the curve) [13]: ~10 nM; IC50 (read off the curve) [14]: ~3 nM | B3 |
| ~0.5 | – | – | – | – | – | B4 |
| ~0.5 | – | – | – | – | EC50 (read off the curve) [15]: ~0.4 nM | B5 |
